Article PMC8121907

Tests used:
[1] = target: activated Vip3Bc1 (Vip3Bc1^act), trypsin-digested Vip3Bc1 (Bacillus thuringiensis); assay: cryo-EM structure; single particle cryoEM of trypsin-digested Vip3Bc1^act, tilted collection, C4 symmetry applied, global resolution 4.8 Å; model built by homology
[2] = target: Vip3Bc1 (wild type, full length, unprocessed) (Bacillus thuringiensis); assay: SEC; Superose 6 increase 10/300 GL, 25 mM TrisHCl pH 7.5, 150 mM NaCl; undigested Vip3Bc1 loaded at 1 mg/mL
[3] = target: Vip3Bc1 (wild type, full length, unprocessed) (Bacillus thuringiensis); assay: cryo-EM structure; single particle cryoEM of undigested Vip3Bc1, C2 symmetry applied, global resolution 3.9 Å

Row | Substance | stoichiometry N [1] | stoichiometry N [2] | stoichiometry N [3]
1 | activated Vip3Bc1 (Vip3Bc1^act), trypsin-digested Vip3Bc1 (complex) | 4 | – | –
2 | Vip3Bc1 (wild type, full length, unprocessed) (natural protein) | – | 4 | 4
